The term Kd denotes the constant that tells how readily two partners part at equilibrium. High values mean weaker binding, low ones tighter binding.

Drawing on patent US20110064743A1, this text covers # Samples Staining Positive and Kd for six molecules.

The target of assay [1] is OVCAR-3 cells (antigen not identified). Description: immunohistochemistry on OVCAR3 cells.
For assay [2] the target is unchanged. Description: saturation binding to cells by FACS, double-reciprocal plot; 'Rel. Affinity (nM)'; antigen on the cells not identified.
Assay [3] concerns the target SK-BR-3 cells (antigen not identified). Described as above.

Substitutions are numbered along the chain they refer to. Where only a bound is given, the exact number is not on record here.

B1: 1038_D5 (TCN-445) (antibody, V domains shown)
VH: QVQLVQSGAEVQKPGASMKVSCKASGYTFTDFYFHWVRQAPGQGLEWMGWINPRSGATNYAHKFRGRVTMTSDTSIKTIYMSLGWLRSGDTAVYYCARDMRRENGYNFDGTFDYWGQGTLVTVSS
VL: DIQMTQSPPSLSASVGDRVTITCQASQDIKNYLNWYQQKPGKAPKLLIYDASNLETGVPSRFSGSRSGTNFTFTINSLQPEDIATYFCQRYDAFPLTFGGGSKVEIK
In assay [1], B1 had a # Samples Staining Positive greater than 75%. Also, the dissociation constant (Kd) in assay [2] came to 0.8 nM.

B2: 1250_I13 (antibody, V domains shown)
VH: QVQLQQWGAGLLKPSETLSLTCAVYGGSFSGYFWTWVRQLPGRGLEWIGEINHRGTSSYNPSLRSRLTISVDTSKNQFSLKLSSVTAADTAVYYCARITEAVGFTSFDYWGQGILVTVSS
VL: QSVLTQPPSMSAAPGQKVTISCSGSTSNIGSNYVSWYQQLPQRAPKLLIYDNDKRPSGIPDRFSGSKSGASATLDITGLQTGDEAYYYCGTWDSSLSRVFGGGTKLTVL
As to B2, the Kd in assay [3] was 1.1 nM.

B3: 1226_K16 (antibody, V domains shown)
VH: B2 VH with F29L, V37I, L40P, G55R, S57T, S58T, Y59S, V71L, F104V
VL: B2 VL with M10V, T19N, S31N, Y33F, S35A, D75G, T81S, S95T
For the molecule B3, the Kd in assay [2] stood at 1.6 nM. This counts as single-digit nanomolar.

B4: 1253_N12 (antibody, V domains shown)
VH: QVQLQQWGAGLVKPSETLSVTCAVYGGSFSGYFWTWIRQPPGRGLEWIGEINHRGSSSYNPSLRSRLSISVDTSKNQFSLKMRSVTAADTAVYYCARITEAVGVTSFDSWGQGVLVTVSS
VL: B2 VL with M10V, S31N, N52D, D75A
For B4, the Kd in assay [3] came to 1.1 nM. This lies in the single-digit nanomolar range.

B5: 1242_P11 (antibody, V domains shown)
VH: QVQLTQWGAGLLKPSETLSLTCAVGGGSFSGYFWTWIRQSPGRGLEWIGEINHKGKTTYNPTLKSRLSILVDTFKNQFSLKLRSVVAADTAVYYCARIVEAVGVTSFDSWGQGILVTVSS
VL: B2 VL with M10V, S31N, Y33H, R43T, D53N, D75G, S94T, S95R
In the case of B5, the dissociation constant Kd in assay [2] is 2 nM.

B6: 1256_B2 (antibody, V domains shown)
VH: QVQLQQWGAGLLKPSETLSLTCAVYGGSFSGYFWSWIRQPPGRGLEWIGEINHRGSSTYKSSLKTRLTMSVDTSKNQFSIKLTSVTAADTAVYYCARITEAVGVTSFDSWGQGVLVTVSS
VL: B2 VL with M10V, S31N, K46R, D75G, S94N, S95N
Regarding B6, the dissociation constant (Kd) in assay [3] was determined as 1.2 nM.
